According to patent US12227742B2, “Nucleic acid modifiers” (THE BROAD INSTITUTE, INC., priority 2017, dated 2025):

Experiments:
target DNA [1] = experiment: SaCas9 DNA cleavage activity, mutational analysis; assay type: biochemical
target DNA [2] = experiment: SpCas9 DNA cleavage activity, mutational analysis; assay type: biochemical; settings: 5′-NGG PAM (5′-GGGCT)

B1: SaCas9 T787A (protein, UniProt J7RUA5 1-1053, looked up, variant T787A)
CRISPR-associated …: MKRNYILGLDIGITSVGYGIIDYETRDVIDAGVRLFKEANVENNEGRRSKRGARRLKRRRRHRIQRVKKLLFDYNLLTDHSELSGINPYEARVKGLSQKLSEEEFSAALLHLAKRRGVHNVNEVEEDTGNELSTKEQISRNSKALEEKYVAELQLERLKKDGEVRGSINRFKTSDYVKEAKQLLKVQKAYHQLDQSFIDTYIDLLETRRTYYEGPGEGSPFGWKDIKEWYEMLMGHCTYFPEELRSVKYAYNADLYNALNDLNNLVITRDENEKLEYYEKFQIIENVFKQKKKPTLKQIAKEILVNEEDIKGYRVTSTGKPEFTNLKVYHDIKDITARKEIIENAELLDQIAKILTIYQSSEDIQEELTNLNSELTQEEIEQISNLKGYTGTHNLSLKAINLILDELWHTNDNQIAIFNRLKLVPKKVDLSQQKEIPTTLVDDFILSPVVKRSFIQSIKVINAIIKKYGLPNDIIIELAREKNSKDAQKMINEMQKRNRQTNERIEEIIRTTGKENAKYLIEKIKLHDMQEGKCLYSLEAIPLEDLLNNPFNYEVDHIIPRSVSFDNSFNNKVLVKQEENSKKGNRTPFQYLSSSDSKISYETFKKHILNLAKGKGRISKTKKEYLLEERDINRFSVQKDFINRNLVDTRYATRGLMNLLRSYFRVNNLDVKVKSINGGFTSFLRRKWKFKKERNKGYKHHAEDALIIANADFIFKEWKKLDKAKKVMENQMFEEKQAESMPEIETEQEYKEIFITPHQIKHIKDFKDYKYSHRVDKKPNRELINDALYSTRKDDKGNTLIVNNLNGLYDKDNDKLKKLINKSPEKLLMYHHDPQTYQKLKLIMEQYGDEKNPLYKYYEETGNYLTKYSKKDNGPVIKKIKYYGNKLNAHLDITDDYPNSRNKVVKLSLKPYRFDVYLDNGVYKFVTVKNLDVIKKENYYEVNSKCYEEAKKLKKISNQAEFIASFYNNDLIKINGELYRVIGVNNDLLNRIEVNMIDITYREYLENMNDKRPPRIIKTIASKTQSIKKYSTDILGNLYEVKSKKHPQIIKKG
- DNA cleavage activity (target DNA [1]): reduced DNA cleavage activity

B2: St3Cas9: Streptococcus thermophilus CRISPR-3 Cas9 (protein, UniProt G3ECR1 1-1409, looked up)
CRISPR-associated …: MLFNKCIIISINLDFSNKEKCMTKPYSIGLDIGTNSVGWAVITDNYKVPSKKMKVLGNTSKKYIKKNLLGVLLFDSGITAEGRRLKRTARRRYTRRRNRILYLQEIFSTEMATLDDAFFQRLDDSFLVPDDKRDSKYPIFGNLVEEKVYHDEFPTIYHLRKYLADSTKKADLRLVYLALAHMIKYRGHFLIEGEFNSKNNDIQKNFQDFLDTYNAIFESDLSLENSKQLEEIVKDKISKLEKKDRILKLFPGEKNSGIFSEFLKLIVGNQADFRKCFNLDEKASLHFSKESYDEDLETLLGYIGDDYSDVFLKAKKLYDAILLSGFLTVTDNETEAPLSSAMIKRYNEHKEDLALLKEYIRNISLKTYNEVFKDDTKNGYAGYIDGKTNQEDFYVYLKNLLAEFEGADYFLEKIDREDFLRKQRTFDNGSIPYQIHLQEMRAILDKQAKFYPFLAKNKERIEKILTFRIPYYVGPLARGNSDFAWSIRKRNEKITPWNFEDVIDKESSAEAFINRMTSFDLYLPEEKVLPKHSLLYETFNVYNELTKVRFIAESMRDYQFLDSKQKKDIVRLYFKDKRKVTDKDIIEYLHAIYGYDGIELKGIEKQFNSSLSTYHDLLNIINDKEFLDDSSNEAIIEEIIHTLTIFEDREMIKQRLSKFENIFDKSVLKKLSRRHYTGWGKLSAKLINGIRDEKSGNTILDYLIDDGISNRNFMQLIHDDALSFKKKIQKAQIIGDEDKGNIKEVVKSLPGSPAIKKGILQSIKIVDELVKVMGGRKPESIVVEMARENQYTNQGKSNSQQRLKRLEKSLKELGSKILKENIPAKLSKIDNNALQNDRLYLYYLQNGKDMYTGDDLDIDRLSNYDIDHIIPQAFLKDNSIDNKVLVSSASNRGKSDDFPSLEVVKKRKTFWYQLLKSKLISQRKFDNLTKAERGGLLPEDKAGFIQRQLVETRQITKHVARLLDEKFNNKKDENNRAVRTVKIITLKSTLVSQFRKDFELYKVREINDFHHAHDAYLNAVIASALLKKYPKLEPEFVYGDYPKYNSFRERKSATEKVYFYSNIMNIFKKSISLADGRVIERPLIEVNEETGESVWNKESDLATVRRVLSYPQVNVVKKVEEQNHGLDRGKPKGLFNANLSSKPKPNSNENLVGAKEYLDPKKYGGYAGISNSFAVLVKGTIEKGAKKKITNVLEFQGISILDRINYRKDKLNFLLEKGYKDIELIIELPKYSLFELSDGSRRMLASILSTNNKRGEIHKGNQIFLSQKFVKLLYHAKRISNTINENHRKYVENHKKEFEELFYYILEFNENYVGAKKNGKLLNSAFQSWQNHSIDELCSSFIGPTGSERKGLFELTSRGSAADFEFLGVKIPRYRDYTPSSLLKDATLIHQSVTGLYETRIDLAKLGEG
- cleavage of target DNA with 5′-NGG PAM (target DNA [2]): not
